Reference: patent US11026999B2, “Insulin glargine/lixisenatide fixed ratio formulation” (SANOFI-AVENTIS DEUTSCHLAND GMBH, priority 2013, dated 2021)

Tests used:
type 2 diabetic patients [1] = test: 7-point Self-Monitored Plasma Glucose (SMPG) profile (Example 1); assay type: in vivo, human; settings: mITT population
Text: In yet another aspect of the present invention, the composition as described herein can be used for improving average 7-point SMPG profile. […] Self-monitored plasma glucose (SMPG), as used herein, is in particular the “7-point Self Monitored Plasma Glucose”. “7-point Self Monitored Plasma Glucose” in particular refers to the measurement of plasma glucose seven times a day and calculation of the average plasma glucose concentration therefrom. The “7-point Self Monitored Plasma Glucose” value is in particular an average plasma glucose concentration including fasting and postprandial conditions. In particular, measurements of plasma glucose concentration are performed pre-breakfast, post-breakfast (e.g. 2-hour post-breakfast), pre-lunch, post-lunch (e.g. 2-hour post-lunch), pre-dinner, post-dinner (e.g. 2-hour post-dinner) and at bedtime (see also FIG. 3). The treatment by the combination of the present invention, as described herein, can improve the self-monitored plasma glucose.
(§1) Criteria for Evaluation: • Efficacy: • Primary Endpoint: • Change in HbA1c from baseline to Week 24 • Secondary Endpoints: • Change in 2-hour PPG during meal test from baseline to Week 24 • Change in 2-hour plasma glucose excursion during meal test from baseline to Week 24 • Percentage of patients reaching HbA1c ≤6.5% or <7% at Week 24 • Change in 7-point SMPG profiles from baseline to Week 24 (each time point and mean daily value) • Change in body weight from baseline to Week 24, • Average daily Insulin glargine dose at Week 24 • Change in FPG from baseline to Week 24 • Percentage of patients requiring rescue therapy during the 24-week open-label treatment period • Change in 30-minute and 1-hour PPG and plasma glucose excursion during meal test from baseline to week 24 • Percentage of patients reaching HbA1c <7% at week 24 with no documented symptomatic hypoglycemia during the 24-week open label treatment period • Percentage of patients reaching HbA1c <7% with no weight gain at week 24
(§2) All continuous secondary efficacy endpoints were analyzed using a similar ANCOVA model with treatment, randomization strata of screening HbA1c (<8%, ≥8%), randomization strata of screening BMI (<30 kg/m^2, ≥30 kg/m^2) and country as fixed effects and using the baseline value of the corresponding parameter as a covariate. Insulin glargine dose was not included in the ANCOVA model as a covariate since patients enrolled were insulin-naïve.

type 2 diabetic patients [2] = test: Major cardiovascular events adjudicated by CAC (Example 1); design: species or system human; settings: in vivo
Text: One patient in the combination group and one patient in the insulin glargine group had respectively two events (hospitalization for unstable angina and percutaneous coronary intervention (PCI]) and one event (PCI) adjudicated as major cardiovascular events by cardiovascular events adjudication committee (CAC).

type 2 diabetic patients [3] = test: Fasting plasma glucose (Example 1); assay type: in vivo, human; settings: mITT population; for Fasting plasma glucose change from baseline to Week 24 (LOCF), LS Mean (SE): ANCOVA
Text: as §1, §2

type 2 diabetic patients [4] = test: Premature treatment discontinuation, patient disposition (Example 1); settings: human, in vivo
Text: During the 24-week study treatment period, 11 (6.8%) combination-treated patients prematurely discontinued the IMP, compared with 3 (1.9%) insulin glargine-treated patients. For combination-treated patients, the most common reasons for treatment discontinuation was “adverse event” (6 patients [3.7%] versus 0 patient in the insulin glargine group) followed by “other reasons” (4 patients [2.5%] versus 2 patients [1.2%] in the insulin glargine group).

type 2 diabetic patients [5] = test: Symptomatic hypoglycemia (Example 1); assay type: in vivo, human; settings: Safety population
Text: Safety: Adverse events, serious adverse events, symptomatic hypoglycemia, vital signs, electrocardiogram (ECG), safety laboratory values.
Symptomatic hypoglycemia events were documented on a specific hypoglycemia event form, and not an AE CRF page, and thus were not included in the TEAE summaries.

type 2 diabetic patients [6] = settings: in vivo
Method: Safety: The safety analysis was conducted on the safety population, defined as all randomized patients who received at least one dose of IMP (regardless of the amount of treatment administered). The evaluation of AEs, laboratory, vital sign, and ECG data was descriptive.

type 2 diabetic patients [7] = test: Injection site reactions and allergic reactions adjudicated by ARAC (Example 1); assay type: in vivo, human
Text: A total of 6 patients (5 patients in the combination group and 1 patient in the insulin glargine group) experienced injection site reactions (Table 19). None of these reactions were considered serious or severe or led to treatment discontinuation.
A total of 2 patients (1 [0.6%] in each group) reported 6 events positively adjudicated as allergic reactions by the ARAC with the same diagnosis of allergic rhinitis. None was adjudicated as possibly related to the IMP (table 20).

[8] = investigator reported terms, Safety population

With “Gly(A21)-Arg(B31)-Arg(B32)-human insulin [Insulin Glargine]” the “Average 7-point SMPG at Week 24 (LOCF), Mean (SD)” value (type 2 diabetic patients [1]) was 7.01 (1.15) mmol/L, the “Average 7-point SMPG at Week 24 (LOCF), Median” value (type 2 diabetic patients [1]) was 6.94 mmol/L and the “Average 7-point SMPG change from baseline to Week 24 (LOCF), Mean (SD)” value (type 2 diabetic patients [1]) was −2.81 (2.18) mmol/L. For the same substance, the “Average 7-point SMPG change from baseline to Week 24 (LOCF), Median” value (type 2 diabetic patients [1]) was -2.31 mmol/L, the “Average 7-point SMPG change from baseline to Week 24 (LOCF), LS Mean (SE)” value (type 2 diabetic patients [1]; ANCOVA) was −2.93 (0.101) mmol/L and the “Events adjudicated as major cardiovascular events by CAC” value (type 2 diabetic patients [2]) was “one”. For the same substance, the “Patients with events adjudicated as major cardiovascular events by CAC” value (type 2 diabetic patients [2]) was “one”, the “Fasting plasma glucose at Week 24 (LOCF), Mean (SD)” value (type 2 diabetic patients [3]) was 6.20 (1.35) mmol/L and the “Fasting plasma glucose at Week 24 (LOCF), Median” value (type 2 diabetic patients [3]) was 5.95 mmol/L. For the same substance, the “Fasting plasma glucose change from baseline to Week 24 (LOCF), Mean (SD)” value (type 2 diabetic patients [3]) was −3.28 (2.39) mmol/L, the “Fasting plasma glucose change from baseline to Week 24 (LOCF), Median” value (type 2 diabetic patients [3]) was -3.00 mmol/L and the “Fasting plasma glucose change from baseline to Week 24 (LOCF), LS Mean (SE)” value (type 2 diabetic patients [3]) was −3.51 (0.128) mmol/L. For the same substance, the “Fasting plasma glucose change from baseline to Week 24 (LOCF), LS Mean (SE)” value (type 2 diabetic patients [3]; listed as insulin glargine) was -3.51 mmol/L, the “Patients who prematurely discontinued the IMP” value (type 2 diabetic patients [4]) was 3 (1.9%) n (%) and the “Treatment discontinuation, reason adverse event” value (type 2 diabetic patients [4]) was 0 n (%). The “Documented symptomatic hypoglycemia (plasma glucose <54 mg/dL [3.0 mmol/L]): Number of events” value (type 2 diabetic patients [5]) was 10, the “Documented symptomatic hypoglycemia (plasma glucose <54 mg/dL [3.0 mmol/L]): Number of events per 100 patient years” value (type 2 diabetic patients [5]) was 13.2 events per 100 patient years and the “Documented symptomatic hypoglycemia (plasma glucose <54 mg/dL [3.0 mmol/L]): Number of patients with events” value (type 2 diabetic patients [5]) was 4 (2.5%) n (%). For the same substance, the “Documented symptomatic hypoglycemia (plasma glucose <60 mg/dL [3.3 mmol/L]): Number of events” value (type 2 diabetic patients [5]) was 18, the “Documented symptomatic hypoglycemia (plasma glucose <60 mg/dL [3.3 mmol/L]): Number of events per 100 patient years” value (type 2 diabetic patients [5]) was 23.8 events per 100 patient years and the “Documented symptomatic hypoglycemia (plasma glucose <60 mg/dL [3.3 mmol/L]): Number of patients with events” value (type 2 diabetic patients [5]) was 9 (5.6%) n (%). For the same substance, the “Documented symptomatic hypoglycemia (plasma glucose <=70 mg/dL [3.9 mmol/L]): Number of events” value (type 2 diabetic patients [5]) was 79, the “Documented symptomatic hypoglycemia (plasma glucose <=70 mg/dL [3.9 mmol/L]): Number of events per 100 patient years” value (type 2 diabetic patients [5]) was 104.5 events per 100 patient years and the “Documented symptomatic hypoglycemia (plasma glucose <=70 mg/dL [3.9 mmol/L]): Number of patients with events” value (type 2 diabetic patients [5]) was 37 (22.8%) n (%). The “Probable symptomatic hypoglycemia: Number of events” value (type 2 diabetic patients [5]) was 5, the “Probable symptomatic hypoglycemia: Number of events per 100 patient years” value (type 2 diabetic patients [5]) was 6.6 events per 100 patient years and the “Probable symptomatic hypoglycemia: Number of patients with events” value (type 2 diabetic patients [5]) was 5 (3.1%) n (%). For the same substance, the “Severe symptomatic hypoglycemia: Number of events” value (type 2 diabetic patients [5]) was 0, the “Severe symptomatic hypoglycemia: Number of events per 100 patient years” value (type 2 diabetic patients [5]) was 0.0 events per 100 patient years and the “Severe symptomatic hypoglycemia: Number of patients with events” value (type 2 diabetic patients [5]) was 0 n (%). The “Symptomatic hypoglycemia: Number of events per 100 patient years” value (type 2 diabetic patients [5]) was 111.1 events per 100 patient years, the “Symptomatic hypoglycemia: Number of events” value (type 2 diabetic patients [5]; TEAE period) was 84 and the “Symptomatic hypoglycemia: Number of patients with events” value (type 2 diabetic patients [5]; documented, probable and severe, TEAE period) was 40 (24.7%) n (%). The “TEAE: HLGT: Infections - pathogen unspecified” value (type 2 diabetic patients [6]) was 31 (19.1%) n (%), the “TEAE: HLGT: Ocular infections, irritations and inflammations” value (type 2 diabetic patients [6]) was 4 (2.5%) n (%) and the “TEAE: HLGT: Viral infectious disorders” value (type 2 diabetic patients [6]) was 8 (4.9%) n (%). For the same substance, the “TEAE: HLT: Abdominal and gastrointestinal infections” value (type 2 diabetic patients [6]) was 1 (0.6%) n (%), the “TEAE: HLT: Conjunctival infections, irritations and inflammations” value (type 2 diabetic patients [6]) was 2 (1.2%) n (%) and the “TEAE: HLT: Diarrhoea (excl infective)” value (type 2 diabetic patients [6]) was 6 (3.7%) n (%). For the same substance, the “TEAE: HLT: Upper respiratory tract infections” value (type 2 diabetic patients [6]) was 21 (13.0%) n (%), the “TEAE: HLT: Urinary tract infections” value (type 2 diabetic patients [6]) was 3 (1.9%) n (%) and the “TEAE: Infections and infestations” value (type 2 diabetic patients [6]) was 38 (23.5%) n (%). For the same substance, the “TEAE: Upper respiratory tract infection” value (type 2 diabetic patients [6]) was 5 (3.1%) n (%), the “TEAE: Urinary tract infection” value (type 2 diabetic patients [6]) was 1 (0.6%) n (%) and the “Treatment emergent SAE: HLGT: Infections - pathogen unspecified” value (type 2 diabetic patients [6]) was 1 (0.6%) n (%). The “Treatment emergent SAE: HLT: Urinary tract infections” value (type 2 diabetic patients [6]) was 1 (0.6%) n (%), the “Treatment emergent SAE: Infections and infestations” value (type 2 diabetic patients [6]) was 1 (0.6%) n (%) and the “Treatment emergent SAE: Urinary tract infection” value (type 2 diabetic patients [6]) was 1 (0.6%) n (%). For the same substance, the “TEAE: HLT: Dental and oral soft tissue infections” value (type 2 diabetic patients [6]; po) was 3 (1.9%) n (%), the Injection site reaction (type 2 diabetic patients [7]; ARAC diagnosis terms, Safety population) was 0 n (%) and the “Rhinitis allergic (ARAC diagnosis ALLERGIC RHINITIS)” value (type 2 diabetic patients [7]; Not related to IMP, Safety population) was 1 (0.6%) n (%). For the same substance, the “Events adjudicated as an allergic reaction by ARAC” value (type 2 diabetic patients [7]; Not related to IMP, TEAE period, Safety population) was 1 (0.6%) n (%), the “Any injection site reactions” value (type 2 diabetic patients [7]; TEAE period, Safety population) was 1 (0.6%) n (%) and the “Injection site reactions: PTs coded from the ARAC diagnosis terms” value (type 2 diabetic patients [7]; TEAE period, Safety population) was 0 n (%). For the same substance, the “Injection site reactions: PTs coded from the investigator reported terms” value (type 2 diabetic patients [7]; TEAE period, Safety population) was 1 (0.6%) n (%), the “Patients who experienced injection site reactions” value (type 2 diabetic patients [7]; in vivo) was 1 patients and the Injection site pain (type 2 diabetic patients [7]; [8]) was 1 (0.6%) n (%). For the same substance, the Injection site pruritus (type 2 diabetic patients [7]; [8]) was 0 n (%), the Injection site rash (type 2 diabetic patients [7]; [8]) was 0 n (%) and the Injection site urticaria (type 2 diabetic patients [7]; [8]) was 0 n (%). The “Rhinitis allergic (ARAC diagnosis ALLERGIC RHINITIS)” value (type 2 diabetic patients [7]; relationship to study treatment: All, Safety population) was 1 (0.6%) n (%) and the “Events adjudicated as an allergic reaction by ARAC” value (type 2 diabetic patients [7]; relationship to study treatment: All, TEAE period, Safety population) was 1 (0.6%) n (%).
